Reference: patent US20150283214A1

Target: α5β1 integrin on mouse embryonic fibronectin-null fibroblasts (mouse) (UniProt P11688)
Assay: cell-based or functional assay

Sequence of α5β1 integrin on mouse embryonic fibronectin-null fibroblasts (mouse) (P11688 45-1053, chain 1 of 2): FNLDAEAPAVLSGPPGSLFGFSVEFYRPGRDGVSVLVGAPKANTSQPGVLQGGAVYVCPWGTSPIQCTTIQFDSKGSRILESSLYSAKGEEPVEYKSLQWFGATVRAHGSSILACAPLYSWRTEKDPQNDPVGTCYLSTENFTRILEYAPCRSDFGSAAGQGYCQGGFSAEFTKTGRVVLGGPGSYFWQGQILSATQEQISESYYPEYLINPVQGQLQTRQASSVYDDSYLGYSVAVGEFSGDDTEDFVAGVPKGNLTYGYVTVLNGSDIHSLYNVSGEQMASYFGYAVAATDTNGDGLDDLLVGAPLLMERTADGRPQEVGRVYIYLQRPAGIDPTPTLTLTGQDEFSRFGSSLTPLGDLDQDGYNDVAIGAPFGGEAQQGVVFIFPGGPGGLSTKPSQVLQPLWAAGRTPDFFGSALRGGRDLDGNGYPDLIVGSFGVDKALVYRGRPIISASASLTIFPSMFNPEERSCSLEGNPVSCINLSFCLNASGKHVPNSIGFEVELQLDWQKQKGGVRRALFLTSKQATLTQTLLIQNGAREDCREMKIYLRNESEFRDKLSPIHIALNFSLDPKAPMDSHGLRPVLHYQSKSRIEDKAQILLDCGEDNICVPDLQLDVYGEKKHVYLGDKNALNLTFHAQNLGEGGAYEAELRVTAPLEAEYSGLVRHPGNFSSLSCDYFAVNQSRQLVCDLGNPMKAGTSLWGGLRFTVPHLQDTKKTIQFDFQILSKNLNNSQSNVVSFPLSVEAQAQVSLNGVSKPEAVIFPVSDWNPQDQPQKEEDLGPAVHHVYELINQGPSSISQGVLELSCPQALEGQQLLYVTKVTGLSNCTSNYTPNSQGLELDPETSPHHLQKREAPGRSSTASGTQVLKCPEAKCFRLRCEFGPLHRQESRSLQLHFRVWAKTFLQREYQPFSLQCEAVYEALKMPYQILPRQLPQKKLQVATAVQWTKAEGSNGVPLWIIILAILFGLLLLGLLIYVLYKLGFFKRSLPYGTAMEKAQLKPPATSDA
Sequence of α5β1 integrin on mouse embryonic fibronectin-null fibroblasts (mouse) (P09055 21-798, chain 2 of 2, further chain): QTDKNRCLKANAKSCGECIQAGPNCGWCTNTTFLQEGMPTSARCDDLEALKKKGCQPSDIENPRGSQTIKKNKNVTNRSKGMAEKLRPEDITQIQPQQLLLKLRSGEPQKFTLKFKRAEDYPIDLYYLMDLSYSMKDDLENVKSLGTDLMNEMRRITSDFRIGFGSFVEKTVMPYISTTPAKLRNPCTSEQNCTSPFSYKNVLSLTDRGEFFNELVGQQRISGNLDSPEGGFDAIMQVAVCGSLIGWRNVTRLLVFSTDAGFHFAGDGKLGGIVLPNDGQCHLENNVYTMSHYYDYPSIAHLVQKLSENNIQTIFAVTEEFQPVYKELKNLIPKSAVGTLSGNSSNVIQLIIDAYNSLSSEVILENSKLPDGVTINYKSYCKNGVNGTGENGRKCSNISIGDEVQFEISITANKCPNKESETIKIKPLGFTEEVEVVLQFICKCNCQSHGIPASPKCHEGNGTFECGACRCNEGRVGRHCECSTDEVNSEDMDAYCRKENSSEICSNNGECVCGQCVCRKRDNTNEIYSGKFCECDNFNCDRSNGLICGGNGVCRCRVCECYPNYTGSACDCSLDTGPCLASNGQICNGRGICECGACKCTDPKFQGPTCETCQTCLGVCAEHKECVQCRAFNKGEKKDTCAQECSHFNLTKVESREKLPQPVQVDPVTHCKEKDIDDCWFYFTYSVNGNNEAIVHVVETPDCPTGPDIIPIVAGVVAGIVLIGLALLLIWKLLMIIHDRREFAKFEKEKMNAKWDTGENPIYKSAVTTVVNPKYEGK
Sequence of Human plasma fibronectin, P02751 32-2477 (other; Alexa^488 label where used as FN^488) (P02751 other isoform, or with tags, fused parts or gaps): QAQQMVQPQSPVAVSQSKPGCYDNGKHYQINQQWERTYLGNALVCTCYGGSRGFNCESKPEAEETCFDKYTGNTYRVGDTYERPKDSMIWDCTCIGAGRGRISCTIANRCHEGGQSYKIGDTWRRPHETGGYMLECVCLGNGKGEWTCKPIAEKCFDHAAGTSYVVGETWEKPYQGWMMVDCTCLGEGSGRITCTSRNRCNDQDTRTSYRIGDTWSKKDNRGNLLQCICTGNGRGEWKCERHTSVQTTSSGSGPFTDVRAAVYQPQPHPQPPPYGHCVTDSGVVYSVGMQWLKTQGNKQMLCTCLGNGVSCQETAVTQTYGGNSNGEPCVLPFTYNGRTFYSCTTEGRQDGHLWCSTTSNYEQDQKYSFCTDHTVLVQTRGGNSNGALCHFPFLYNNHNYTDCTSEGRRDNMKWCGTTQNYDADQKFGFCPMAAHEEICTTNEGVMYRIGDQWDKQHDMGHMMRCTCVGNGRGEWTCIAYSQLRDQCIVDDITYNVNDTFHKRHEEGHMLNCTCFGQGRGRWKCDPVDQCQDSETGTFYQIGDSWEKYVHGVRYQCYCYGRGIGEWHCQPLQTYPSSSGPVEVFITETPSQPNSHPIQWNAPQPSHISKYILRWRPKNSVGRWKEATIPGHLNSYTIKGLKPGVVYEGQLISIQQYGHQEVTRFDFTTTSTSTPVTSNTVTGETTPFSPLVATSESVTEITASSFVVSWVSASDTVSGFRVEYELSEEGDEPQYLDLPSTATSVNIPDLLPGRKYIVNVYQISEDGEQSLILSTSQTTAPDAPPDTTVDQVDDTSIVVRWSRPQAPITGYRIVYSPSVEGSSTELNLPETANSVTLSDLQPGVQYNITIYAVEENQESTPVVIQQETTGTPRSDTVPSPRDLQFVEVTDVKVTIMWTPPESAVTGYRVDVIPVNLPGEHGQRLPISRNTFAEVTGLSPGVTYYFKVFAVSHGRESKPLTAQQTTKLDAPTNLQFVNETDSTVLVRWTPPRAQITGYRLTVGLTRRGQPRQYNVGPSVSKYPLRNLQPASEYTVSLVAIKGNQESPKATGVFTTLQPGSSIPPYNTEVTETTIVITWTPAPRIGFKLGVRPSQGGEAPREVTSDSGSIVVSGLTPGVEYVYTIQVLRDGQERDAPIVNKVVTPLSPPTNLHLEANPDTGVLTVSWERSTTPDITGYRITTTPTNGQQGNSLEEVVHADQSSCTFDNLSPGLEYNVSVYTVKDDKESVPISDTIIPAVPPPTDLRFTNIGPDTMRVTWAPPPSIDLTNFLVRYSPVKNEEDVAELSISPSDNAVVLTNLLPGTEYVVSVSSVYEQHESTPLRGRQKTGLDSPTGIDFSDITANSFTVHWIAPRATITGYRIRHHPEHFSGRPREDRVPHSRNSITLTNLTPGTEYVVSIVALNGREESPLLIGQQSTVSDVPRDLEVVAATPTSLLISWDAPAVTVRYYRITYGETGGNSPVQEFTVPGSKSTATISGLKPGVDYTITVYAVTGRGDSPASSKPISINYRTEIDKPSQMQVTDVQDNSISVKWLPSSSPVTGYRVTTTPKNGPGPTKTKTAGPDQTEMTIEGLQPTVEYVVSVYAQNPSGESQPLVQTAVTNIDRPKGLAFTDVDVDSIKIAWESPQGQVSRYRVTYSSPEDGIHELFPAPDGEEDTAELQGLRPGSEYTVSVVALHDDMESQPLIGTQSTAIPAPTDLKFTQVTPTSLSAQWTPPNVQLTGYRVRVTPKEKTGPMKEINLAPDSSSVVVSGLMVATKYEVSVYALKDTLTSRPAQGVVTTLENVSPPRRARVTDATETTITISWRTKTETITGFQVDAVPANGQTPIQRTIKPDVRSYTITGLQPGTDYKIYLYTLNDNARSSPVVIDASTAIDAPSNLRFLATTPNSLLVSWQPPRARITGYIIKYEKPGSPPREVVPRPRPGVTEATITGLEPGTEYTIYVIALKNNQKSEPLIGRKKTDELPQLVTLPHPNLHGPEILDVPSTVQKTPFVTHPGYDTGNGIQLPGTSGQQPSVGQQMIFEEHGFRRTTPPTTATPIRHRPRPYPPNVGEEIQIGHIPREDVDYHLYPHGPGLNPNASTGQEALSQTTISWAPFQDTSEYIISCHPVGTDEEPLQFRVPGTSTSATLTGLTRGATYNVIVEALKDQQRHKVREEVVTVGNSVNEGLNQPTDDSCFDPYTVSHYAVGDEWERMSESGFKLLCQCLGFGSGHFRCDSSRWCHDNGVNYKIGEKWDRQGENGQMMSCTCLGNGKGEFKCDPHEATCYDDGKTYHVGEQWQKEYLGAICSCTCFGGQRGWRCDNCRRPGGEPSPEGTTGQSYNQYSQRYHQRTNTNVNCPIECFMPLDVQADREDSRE

reduction of FN-null MEF adhesion to full-length fibronectin by α5 integrin-blocking antibody: 53%
reduction of FN-null MEF adhesion to full-length fibronectin by β1 integrin-blocking antibody: 71.3%
Substance: Human plasma fibronectin, P02751 32-2477 (other; Alexa^488 label where used as FN^488)
